Measurements: publication PMC10977726 (PLOS ONE, 2024)

Target: human IgG Fc (Biotin-SP-ChromPure Human IgG, Fc fragment) (human, biotin (Biotin-SP))
Assay: SPR
Details: both partners purified

## ENLYFQGECKGKGAKCSSISIHDAHCCTGSCRSGKC (designed binder) [His(6)-SUMO-TEV-Ig-CON-5 fusion protein]
  Kd: 22.2 nM
